Target: T1, M2 protein expressed on the surface of PR8-infected MDCK cells (Influenza A virus A/Puerto Rico/8/1932 …, UniProt P06821 1-97)
T1 construct: whole, on cells
Experiment: FMAT, crude supernatant on PR8-infected MDCK cells

T1 sequence (P06821 whole entry): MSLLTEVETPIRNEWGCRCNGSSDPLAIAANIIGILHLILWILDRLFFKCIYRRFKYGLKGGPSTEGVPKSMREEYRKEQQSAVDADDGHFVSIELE

B1: 23K12 (antibody, V domains shown)
VH: EVQLVESGGGLVQPGGSLRISCAASGFTVSSNYMSWVRQAPGKGLEWVSVIYSGGSTYYADSVKGRFSFSRDNSKNTVFLQMNSLRAEDTAVYYCARCLSRMRGYGLDVWGQGTTVTVS
VL: DIQMTQSPSSLSASVGDRVTITCRTSQSISSYLNWYQQKPGKAPKLLIYAASSLQSGVPSRFSGSGSGTDFTLTISGLQPEDFATYYCQQSYSMPAFGQGTKLEIK
B1: binds.
